Reference: US20160146829A1 (University of California, published 2016)
Ends that are not written are not given here. * marks the point of attachment. Biotin = O=C1N[C@H]2[C@H](CS[C@H]2CCCCC(=O)*)N1

Experiments:
[1] = molecular target: T1, pCp-1B, biotinylated alemtuzumab binding peptide (not fully specified (bridges); also: incubated with sodium tetrathionate (oxidizing) before binding); assay: nano-pore optical interferometry (SkiPro); biotinylated peptide on streptavidin chip, whole mAb in solution
T1 construct: Synthetic peptide (Sigma-Genosys); For ELISA it was captured on NeutrAvidin plates; also called Cp-1 (biotinylated peptide)
T1 peptide: ACGSLSPSSCGGK(Biotin)

[2] = molecular target: T1, pCp-1B, biotinylated alemtuzumab …; assay: peptide ELISA, biotinylated peptide on NeutrAvidin plate, antibody diluted in TBST, anti-human IgG POD detection

B1: alemtuzumab (antibody, V domains shown)
VH: QVQLQESGPGLVRPSQTLSLTCTVSGFTFTDFYMNWVRQPPGRGLEWIGFIRDKAKGYTTEYNPSVKGRVTMLVDTSKNQFSLRLSSVTAADTAVYYCAREGHTAAPFDYWGQGSLVTVSS
VL: DIQMTQSPSSLSASVGDRVTITCKASQNIDKYLNWYQQKPGKAPKLLIYNTNNLQTGVPSRFSGSGSGTDFTFTISSLQPEDIATYYCLQHISRPRTFGQGTKVEIKR
B1 gave a Kd [1] of 163 nM, a koff [1] of 0.00132 s⁻¹ and a kon [1] of 8130 M⁻¹ s⁻¹. For the same binder, the “EC50 (read off the curve)” value [2] was about 0.3 µg/mL.
